Test results as given in paper PMC10157535, “Structural basis of phosphorylation-induced activation of the response regulator VbrR”.

Legend:
[1] = molecular target: VbrR DNA-binding domain (DBD, 125-220) (Vibrio parahaemolyticus); assay: SEC-MALS; SEC-MALLS, Superdex-200 10/30, buffer A (20 mM Tris-HCl pH 8.0, 100 mM NaCl), 100 uL of ~10 mg/mL protein injected, 0.5 mL/min; no BeF3-
[2] = molecular target: VbrR receiver domain (RD, 1-117) (Vibrio parahaemolyticus); assay: SEC-MALS; SEC-MALLS, Superdex-200 10/30, buffer A supplemented with 5.3 mM BeSO4, 35 mM NaF and 7 mM MgCl2 (BeF3-), 100 uL of ~10 mg/mL protein injected
[3] = molecular target: full-length VbrR (response regulator VbrR from Vibrio parahaemolyticus) (Vibrio parahaemolyticus); assay: SEC-MALS; SEC-MALLS, Superdex-200 10/30, buffer A (20 mM Tris-HCl pH 8.0, 100 mM NaCl), 100 uL of ~10 mg/mL protein injected, 0.5 mL/min; no BeF3-
VbrR (monomer fraction) [4] = molecular target: T1, VbrR (monomer fraction) (Vibrio parahaemolyticus, UniProt A0A0L8SKF9 1-220); assay: crystal structure; 4.6 A; VbrR dimer on DNA; BLI (Octet RED, biotinylated protein on streptavidin sensors), PBS: 10 mM phosphate pH 7.4, 2.7 mM KCl, 137 mM NaCl, 25 C; 1:1 fit; settings: protein: recombinant; tags: N-terminal 6xHis; biotinylated for BLI; chain copies: 2; blunt
T1 sequence: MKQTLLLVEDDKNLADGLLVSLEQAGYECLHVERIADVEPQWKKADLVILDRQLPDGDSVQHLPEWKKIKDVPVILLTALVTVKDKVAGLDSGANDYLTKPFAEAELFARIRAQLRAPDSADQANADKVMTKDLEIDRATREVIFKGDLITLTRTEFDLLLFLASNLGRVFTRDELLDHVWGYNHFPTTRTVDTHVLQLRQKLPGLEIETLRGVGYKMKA

VbrR (state not stated) [5] = molecular target: T2, VbrR (state not stated) (Vibrio parahaemolyticus, UniProt A0A0L8SKF9 1-220); assay: BLI; 10-160 uM DNA; text order of the two values (0.69, 0.77) matches 30 bp then 49 bp; BLI (Octet RED, biotinylated protein on streptavidin sensors), PBS: 10 mM phosphate pH 7.4, 2.7 mM KCl, 137 mM NaCl, 25 C; 1:1 fit; settings: protein: recombinant, tags: N-terminal 6xHis, chain copies: 2
T2 sequence: T1 sequence

VbrR (monomer fraction) [6] = molecular target: T1, VbrR (monomer fraction); assay: BLI; VbrR monomer; BLI (Octet RED, biotinylated protein on streptavidin sensors), PBS: 10 mM phosphate pH 7.4, 2.7 mM KCl, 137 mM NaCl, 25 C; 1:1 fit; settings: protein: recombinant; tags: N-terminal 6xHis; biotinylated for BLI
[7] = molecular target: T3, VbrR DBD (monomer fraction) (Vibrio parahaemolyticus, UniProt A0A0L8SKF9 125-220); assay: BLI; DBD monomer; BLI (Octet RED, biotinylated protein on streptavidin sensors), PBS: 10 mM phosphate pH 7.4, 2.7 mM KCl, 137 mM NaCl, 25 C; 1:1 fit; settings: protein: recombinant, tags: N-terminal 6xHis
T3 sequence: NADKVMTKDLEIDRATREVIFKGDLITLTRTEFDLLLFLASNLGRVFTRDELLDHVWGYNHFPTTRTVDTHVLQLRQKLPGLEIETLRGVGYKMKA

VbrR (state not stated) [8] = molecular target: T2, VbrR (state not stated); assay: BLI; 2.5-80 uM DNA; oligomeric state not stated; BLI (Octet RED, biotinylated protein on streptavidin sensors), PBS: 10 mM phosphate pH 7.4, 2.7 mM KCl, 137 mM NaCl, 25 C; 1:1 fit; settings: protein: recombinant, tags: N-terminal 6xHis, chain copies: 2

Q: How did the stoichiometry N [1] turn out when “VbrR DNA-binding domain (DBD, 125-220) (domain or fragment)” was run?
A: 2

Q: With “VbrR receiver domain (RD, 1-117) (domain or fragment)” as the molecule, how does the stoichiometry N [2] read?
A: 2

Q: Which stoichiometry N [3] does the source give for “full-length VbrR (response regulator VbrR from Vibrio parahaemolyticus) (natural protein)” here?
A: 2

B1: exsC promoter 26 bp (dsDNA)
DNA 1: CACAATTCTAATTCTTCATCGCTTGT
DNA 2: ACAAGCGATGAAGAATTAGAATTGTG
Q: Does B1 bind (VbrR (monomer fraction) [4])?
A: binds

B2: exsC promoter 30 bp (dsDNA)
DNA 1: AACACAATTCTAATTCTTCATCGCTTGTCG
DNA 2: CGACAAGCGATGAAGAATTAGAATTGTGTT
Q: Which Kd (VbrR (state not stated) [5]) does the source give for B2 here?
A: 690 nM

B3: exsC promoter 49 bp (dsDNA)
DNA 1: AACACAATTCTAATTCTTCATCGCTTGTCGATATAAACCAAAATCCCAC
DNA 2: GTGGGATTTTGGTTTATATCGACAAGCGATGAAGAATTAGAATTGTGTT
Q: How did the Kd (VbrR (monomer fraction) [6]) turn out when B3 was run?
A: 270 nM

Q: What about the Kd [7] of the same molecule?
A: 140 nM

Q: And the Kd (VbrR (state not stated) [8])?
A: 770 nM
